This is an account of results in patent publication US20220041738A1 (SAITAMA MEDICAL UNIVERSITY, published 2022).

Substitutions are numbered along the chain they refer to.

Experiment [1] has as its target T1, human ALK2-G328W on cells (human, UniProt Q04771 21-509).
T1 sequence: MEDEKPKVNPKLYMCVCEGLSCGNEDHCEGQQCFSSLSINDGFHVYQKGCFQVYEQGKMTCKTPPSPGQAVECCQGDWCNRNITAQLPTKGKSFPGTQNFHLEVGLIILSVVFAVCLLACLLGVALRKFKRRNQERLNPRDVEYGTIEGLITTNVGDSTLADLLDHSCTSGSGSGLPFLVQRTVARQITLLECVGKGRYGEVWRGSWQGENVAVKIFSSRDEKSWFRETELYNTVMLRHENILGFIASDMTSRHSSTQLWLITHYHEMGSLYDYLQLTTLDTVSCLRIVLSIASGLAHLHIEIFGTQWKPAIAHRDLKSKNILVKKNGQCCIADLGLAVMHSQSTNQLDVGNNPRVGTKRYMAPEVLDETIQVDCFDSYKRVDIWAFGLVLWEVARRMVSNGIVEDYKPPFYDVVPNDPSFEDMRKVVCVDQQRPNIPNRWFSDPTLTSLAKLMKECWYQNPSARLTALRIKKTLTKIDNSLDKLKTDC
The experiment is described as follows: immunofluorescence (legend of FIG. 4). Here is the method:
(§1) Mouse C2C12 cells were seeded into a 96-well plate (Greiner Bio-One) at 0.5×10³ cells/well, and cultured in 15% FBS-containing DMEM medium overnight under the conditions of 5% CO₂ at 37° C. On the following day, the C2C12 cells were transfected with each of a wild-type human ALK2 cDNA integrated into pcDEF3; pcDEF3/human ALK2-L196P, pcDEF3/human ALK2-P197_F198delinsL, pcDEF3/human ALK2-R202I, pcDEF3/human ALK2-R206H, pcDEF3/human ALK2-Q207E, pcDEF3/human ALK2-R258S, pcDEF3/human ALK2-G325A, pcDEF3/human ALK2-G328E, pcDEF3/human ALK2-G328R, pcDEF3/human ALK2-G328W, pcDEF3/human ALK2-G356D, and pcDEF3/human ALK2-R375P, which are variants identified in FOP; and pcDEF3 as a control, using Lipofectamine 2000 (Invitrogen), and further cultured overnight.
(§2) The C2C12 cells were fixed with 10% neutral formalin (Nacalai Tesque, Japan) for 20 minutes at room temperature, and then blocked with 10% goat normal serum for 30 minutes. After the blocking agent was removed, purified IgG diluted to 10 μg/mL with the blocking agent was added, and the cells were left for 1 hour at room temperature. After the cells were washed with PBS three times, Goat Alexa 594-conjugated anti-rat IgG (Invitrogen) diluted to 1:1000 with the blocking agent was added, and the cells were left for 1 hour at room temperature. After the cells were washed with PBS three times, the cells were fixed with 10% neutral formalin for 15 minutes at room temperature, and nuclear-stained with DAPI (LifeTechnologies). Fluorescent signals were analyzed with a fluorescence microscope BZ-9000 (Keyence).

In experiment [2] the target is T2, human ALK2-R375P on cells (human, UniProt Q04771 21-509).
T2 sequence: T1 sequence with W308G, R355P
Nature of the experiment: immunofluorescence (legend of FIG. 4). Here is the method: as §1, §2

The target in experiment [3] is T3, human ALK2(R206H)-EGFP on HEK293A cells (human, UniProt Q04771 21-509).
T3 construct: also called hALK2(R206H)-EGFP; FOP human ALK2; not shown: EGFP fused to ALK2
T3 sequence: T1 sequence with R186H, W308G
The experiment is described as follows: flow cytometry on transfected HEK293A cells, Alexa 647 anti-rat IgG (APC-A) against EGFP (FITC-A). The protocol: HEK293A cells were seeded into a 100-mm dish at 3×10⁴ cells/cm², and cultured overnight in 15% FBS-containing DMEM medium under the conditions of 5% CO₂ at 37° C. On the following day, the HEK293A cells were transfected with each of pcDEF3/mouse ALK2(WT)-EGFP, pcDEF3/human ALK2(WT)-EGFP, pcDEF3/human ALK2 (R206H)-EGFP, and pcDEF3, using Lipofectamine 2000 (Invitrogen), and further cultured overnight. On the following day, 100 μL each of the cell suspensions adjusted to 1×10⁶ cells/mL was dispensed into a 1.5-mL microfuge and centrifuged at 500 g for 5 minutes, and then the supernatant was removed. To the cells, 100 μL of purified IgG diluted to 1 μg/mL was added, and the cells were left for 30 minutes at 4° C. After the cells were washed with PBS three times, 100 μL of Alexa flour 647 Goat anti-Rat IgG (H+L) (Life Technologies) diluted to 1:200 was added, and the cells were further left for 30 minutes at 4° C. After the cells were washed with PBS three times, fluorescence was detected by a flow cytometer (FACS Aria II: BD Biosciences). The data was analyzed using BD Diva Software (BD Biosciences), and the intensity of EGFP expressed by the cells and the fluorescence intensity of stained Alexa flour 647 were plotted.
(In general: In flow cytometry, cells or beads pass a laser one at a time.)

B1: rat anti-ALK2 monoclonal antibody A2-11E (antibody, V domains shown)
VH: EVQLVETGGGLVQPGRSLKLSCVASGFTFSNYYMYWIRQAPGKGLEWISSINTDGGSTYYPDSVKGRFAISRDNAENTVYLQMNSLRSEDTATYYCAKSTPNIPLAYWGQGTLVTVSS
VL: DIQMTQSPSLLSASVGDRVTLSCKASQNIYKYLNWFQQKLGEAPKLLIYYSNSLQTGIPSRFSGSGSGTDFTLTISSLQPEDVAIYFCFQYSSGPTFGPGTKLELKR
notes: Rat monoclonal IgG from a hybridoma; also called 11E2
As to B1, the binding result in experiment [1], in experiment [2] and in experiment [3] was “binds” throughout.

B2: rat anti-ALK2 monoclonal antibody A2-15A (antibody, V domains shown)
VH: EVQLVESGGGLVQPGRSLKLSCAASGFTFSHYYMAWVRQAPTKGLEWVASITNSGGSINYRDSVKGRFTISRDNAKSTLYLQMDSLRSEDTATYYCTREGGENYGGYPPFAYWGQGTLVTVSS
VL: DIVLTQSPALAVSLGQRATISCRANQGVSLSRYNLMHWYQQKPGQKPKLLIYRSSNLASGIPARFSGSGSGTDFTLTINPVQADDIATYYCQQSRESPFTFGAGTKLELKR
notes: Rat monoclonal IgG from a hybridoma; also called 15A6
Take B2: the binding result in experiment [1], in experiment [2] and in experiment [3] was “binds” each time.

B3: rat anti-ALK2 monoclonal antibody A2-25C (antibody, V domains shown)
VH: EVQLVESGGGLVQPGGSLKLSCAASGFTFSYYAMSWVCQAPTKGLEWVASISRGGDNTYYRDTVKGRFTTSRDNAKNTLYLQMDSLRSEDTATYYCARLNYNNYFDYWGQGVMVTVSS
VL: DIQMTQSPASLSASLEEIVTITCQASQDIGNWLSWYQQKPGKSPQLLIYGATSLADGVPSRFSGSRSGTQYSLKISRLRVEDIGIYYCLQAYSAPFTFGSGTKLEIKR
notes: Rat monoclonal IgG from a hybridoma; also called 25C11
On to B3, for which the binding result in experiment [3] is on record as “binds”.

B4: rat anti-ALK2 monoclonal antibody A2-27D (antibody, V domains shown)
VH: EVQLVESGGGLVQPGRSLKLSCLASGSTFSNYGMKWIRQAPGKGLEWVASISRSSTYIYYADTVKGRFTISRDNARNTLYLQMTSLRSEDTALYYCAAAISTPFYWYFDFWGPGTVVTVSS
VL: EIVLTQSPTTMAASPGEKVTLNCLASSSVSYMTWYQQKSGASPKLWIYGTSNLASGVPNRFSGSGSGTSYSLAISSMEAEDVATYYCLHLTSYPPYTFGAGTKLELKR
notes: Rat monoclonal IgG from a hybridoma; also called 27D11
As to B4, the binding result in experiment [3] was “binds”.
